Source: publication PMC6141180 (2018)
Blank lines part the entries; values can stand above or below the binder they belong to.

Experiments:
[1] = target: T1, p38α (MAPK14), nonphosphorylated (mouse, UniProt P47811 1-360); test: FP; displacement of fluorescein-labeled MKK3b peptide
[2] = target: T2, dual (pThr180, pTyr182) phosphorylated p38α (mouse, UniProt P47811 1-360, phosphothreonine at 180, phosphotyrosine at 182); test: ITC; p38α dually phosphorylated
[3] = target: T1, p38α (MAPK14), nonphosphorylated; test: ITC
[4] = target: T2, dual (pThr180, pTyr182) phosphorylated …; test: ITC; p38α dually phosphorylated; TAB1 pSer423

T1 sequence (P47811 whole entry): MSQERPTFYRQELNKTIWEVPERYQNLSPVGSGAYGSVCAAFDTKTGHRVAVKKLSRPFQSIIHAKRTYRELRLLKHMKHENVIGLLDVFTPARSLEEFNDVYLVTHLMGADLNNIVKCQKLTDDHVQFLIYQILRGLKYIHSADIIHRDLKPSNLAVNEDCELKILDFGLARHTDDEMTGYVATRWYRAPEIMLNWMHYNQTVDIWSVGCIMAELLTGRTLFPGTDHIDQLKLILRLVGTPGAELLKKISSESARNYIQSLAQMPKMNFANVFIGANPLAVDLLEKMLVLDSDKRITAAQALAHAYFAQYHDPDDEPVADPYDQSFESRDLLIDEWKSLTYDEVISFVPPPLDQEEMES
T2 sequence (P47811 whole entry): as above

IC50 [1]: 15000 nM
Binder: Ac-GKSKRKKDLRISCMSKP-NH2 [MKK3b peptide, unlabeled]

Kd [2]: 2000 nM
IC50 [1]: 11000 nM
Kd [3]: 2900 nM
Binder: Ac-RVYPVSVPYSSAQSTSKTSVTLSLVMPSQ-NH2 [TAB1 (residues 384–412) peptide]

Kd [3]: 1500 nM
B1: TAB1 (residues 1–438) (domain or fragment)
chain: MAAQRRSLLQSEQQPSWTDDLPLCHLSGVGSASNRSYSADGKGTESHPPEDNWLKFRSENNCFLYGVFNGYDGNRVTNFVAQRLSAELLLGQLNTEHTEADVRRVLLQAFDVVERSFLESIDDALAEKASLQSQLPEGVPQHQLPPQYQKILERLKALEREISGGAMAVVAVLLNSKLYVANVGTNRALLCKSTVDGLQVTQLNMDHTTENEDELFRLSQLGLDAGKIKQMGVICGQESTRRIGDYKVKYGYTDIDLLSAAKSKPIIAEPEIHGAQPLDGVTGFLVLMSEGLYKALEAAHGPGQANQEIAAMIDTEFAKQTSLDAVAQAVVDRVKRIHSDTFASGGERAKFCPRHEDMTLLVRNFGYPLGEMSQPTPTPAPGGRVYPVSVPYSSAQSTSKTSVTLSLVMPSQGQMVNGSHSASTLDEATPTLTNQSPT

Kd [4]: 1700 nM
B2: TAB1 (residues 1–438) phosphorylated at Serine 423 (domain or fragment)
chain: B1 chain
modifications: phosphoserine at 423
